Experimental data as given in article PMC8597827, “The effect of S427F mutation on RXRα activity depends on its dimeric partner†”.

Molecular target: RXRα S427F (human, UniProt P19793 1-462, S427F)
Test: EMSA; no ligand; binds as well as WT; two shifts; competed by 5x and 25x unlabeled DR1; 10 mM Tris HCl pH 8.0, 150 mM KCl, 0.5 mM EDTA, 0.1% Triton X-100, 12.5% glycerol, 0.2 mM DTT, 1 ug poly(dI-dC), 100 pmol probe in 20 uL; 10 min RT then 5 min 37 C; 5% PAGE in 0.5x TBE at 4 C
Conditions: protein: recombinant; chain copies: 2; blunt

RXRα S427F, sequence (P19793 whole entry S427F): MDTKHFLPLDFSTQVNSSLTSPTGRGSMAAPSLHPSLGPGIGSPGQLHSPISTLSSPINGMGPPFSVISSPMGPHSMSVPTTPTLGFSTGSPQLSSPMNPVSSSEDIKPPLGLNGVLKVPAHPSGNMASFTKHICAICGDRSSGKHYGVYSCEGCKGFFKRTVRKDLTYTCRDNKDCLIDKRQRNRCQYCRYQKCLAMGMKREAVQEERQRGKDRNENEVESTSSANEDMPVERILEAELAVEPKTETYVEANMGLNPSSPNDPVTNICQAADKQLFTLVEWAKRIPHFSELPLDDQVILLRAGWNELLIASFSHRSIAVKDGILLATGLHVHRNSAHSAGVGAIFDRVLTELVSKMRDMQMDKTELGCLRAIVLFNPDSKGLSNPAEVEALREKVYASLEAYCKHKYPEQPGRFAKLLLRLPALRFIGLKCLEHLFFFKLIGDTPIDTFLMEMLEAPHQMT

B1: DR1 (dsDNA)
DNA 1: TCGAGGGTAGGGGTCAGAGGTCACTCGTCGA
DNA 2: TCGACGAGTGACCTCTGACCCCTACCCTCGA
- binding result: binds
